The test system of assay [1] is dark-grown Arabidopsis seedlings. Description: Silver sensitivity assay: effect of silver on ethylene response of dark-grown seedlings. It counts as in vivo. The source says:
As an initial test for the feasibility of the first hypothesis, Applicant asked if ETR1^D25N could still bind a metal cofactor, and therefore potentially ethylene, in planta. For this purpose, Applicant examined the effects of silver (Ag) on ethylene sensitivity. Silver is thought to substitute for the copper cofactor and, although receptors containing silver can still bind ethylene, they no longer transmit the signal, resulting in ethylene insensitivity.

Assay [2] in a line: Copper binding assay: purified ETR1 transmembrane domain titrated to BCA2-Cu(I) complex, absorbance at 562 nm. The note with it: ETR1-TMD expressed and purified from E. coli; Cu(I) stabilized by BCA. The source says:
Cu(I) was stabilized by the copper chelator BCA, and then titrated with increasing ETR1 protein concentration.
Titration curves were corrected for nonspecific binding observed with chemically and thermally denatured receptor to maximize signal to background levels.

Assay [3] is described as follows: Saturable [14C]ethylene binding to yeast transgenically expressing ETR1. The arrangement: species or system Saccharomyces cerevisiae. The note with it: 0.21 μL L^−1 [14C]ethylene; for saturable [14C]ethylene binding: with or without excess [12C]ethylene. The source says:
Saturable ethylene binding of the ETR1 Asp25 mutants was examined by heterologous expression in yeast, with binding to [^14C]ethylene determined in the presence or absence of excess [^12C]ethylene (FIG. 2C). […] This included the ETR1^D25A mutant, consistent with previous observations, as well as for the ETR1^D25N and ETR1^D25Q mutants (FIG. 2C). Results from the ethylene binding assay are therefore consistent with the negative charge at D25 playing a significant role in mediating high-affinity ethylene binding.
[^14C]ethylene (specific activity=116 mCi/mmol) was obtained from ViTrax Radiochemicals (Placentia, CA) and trapped as the mercuric perchlorate complex as described. For ethylene binding assays in yeast, ETR1 was expressed in the yeast Saccharomyces cerevisiae (strain FY834) using the vector pYcDE-2 and a constitutive ADC1 promoter. The yeast growth media was supplemented with 40 μg L^−1 copper sulfate. Saturable ethylene binding to yeast was determined by analyzing binding of 0.3 g yeast per sample to 0.21 μL L^−1 [^14C]ethylene, in the presence or absence of excess [^12C]ethylene.

The test system of assay [4] is Arabidopsis seedlings, etr1 etr2 ein4 background. The assay is described as follows: Triple-response hypocotyl growth assay of dark-grown seedlings expressing ETR1 transgenes. In kind it is in vivo. The note with it: for rescue of growth of etr1 etr2 ein4 triple mutant in air: absence of ethylene, hypocotyl and adult shoot growth; for hypocotyl growth response to ethylene: dark-grown seedlings, 0 or 1 μL L^−1 ethylene. On the procedure:
Functionality of the ETR1 Asp25 mutants was tested by transgenic expression in the etr1 etr2 ein4 Arabidopsis background.
Applicant can thus exploit the triple mutant to assess the ability of the ETR1 transgenes to rescue growth in the absence of ethylene as well as their ability to mediate a response to ethylene. Such an analysis indicates whether the encoded receptors are able to assume the ‘on’ conformation that represses the ethylene response in air, as well as the ‘off’ conformation that occurs in response to ethylene binding.
(§1) All Arabidopsis lines were of the Columbia (Col-0) accession. The etr1-1 and etr1-6 etr2-3 ein4-4 mutant lines have been described. Analysis of the triple response of dark-grown Arabidopsis seedlings to ethylene was performed as described previously. Briefly, seedlings were grown at 22° C. on vertically oriented plates on half-strength Murashige and Skoog basal medium with Gamborg's vitamins (pH 5.75; Sigma), 0.8% (w/v) agar, and 5 μM aminoethoxyvinylglycine (AVG) to inhibit ethylene biosynthesis. The stratified seed was exposed to light for 8 hr and then moved to the dark in the presence or absence of ethylene, with analysis of the seedling growth being performed following 4 days total growth. For short-term kinetic analysis of dark-grown seedlings, time-lapse imaging and growth rate analysis of hypocotyls were carried out as described previously.

The test system is the same in assay [5]. Description: Short-term kinetic analysis of hypocotyl growth response to ethylene. In kind it is in vivo. The note with it: 10 μL/L ethylene for 2 hr. On the procedure: Based on the differences Applicant uncovered for the long-term ethylene growth responses for the Asp25 mutants, Applicant also analyzed their short-term hypocotyl growth and molecular responses to ethylene. To this end, Applicant performed a short-term kinetic analysis, analyzing the initial hypocotyl growth inhibition in response to 10 μL/L ethylene and the growth recovery following the removal of ethylene after two hours of treatment (FIG. 6A).
as §1

Assay [6] deals with OSR1, ERF1, EXP5 and EXPb1 expression. Description: Ethylene-dependent gene expression by RT-qPCR. It counts as in vivo, Arabidopsis. The note with it: 0 or 1 μL L^−1 ethylene for 2 hr. The method, then: To examine the short-term molecular response, Applicant characterized ethylene-dependent gene expression for the ETR1 Asp25 mutants (FIG. 6B). Expression of OSR1 and ERF1 is induced, whereas the expression of EXP5 and EXPb1 is repressed, in response to ethylene.
RNA isolation and RT-qPCR was performed with three biological replicates and two technical replicates of each.
(In general: Quantitative PCR measures a nucleic acid by following its amplification.)

For assay [7] the following is noted: previously reported; cited from earlier work.
Assay [8] deals with Arabidopsis seedlings, etr1 etr2 ein4 background. The note with it: previously reported; cited from earlier work.

We go through 4 molecules from US20250027955A1, “ETHYLENE RECEPTORS AND BINDING DOMAINS WITH MODIFIED BINDING KINETICS FOR ETHYLENE” (Trustees of Dartmouth College, priority 2022, published 2025).

Consider `[Ag]` [silver, reference compound], for which the “effect of silver on ethylene response of etr1 etr2 ein4 triple mutant” value in assay [1] (etr1 etr2 ein4, 10 μL/L ethylene) is listed as “still responsive to ethylene”. Besides, the “effect of silver on ethylene response of wild-type seedlings” value in assay [1] (wild-type, 10 μL/L ethylene) is listed as “blocked”.

B1: ETR1^D25E: ETR1 with Asp25 replaced by Glu (protein, UniProt P49333 1-738, looked up, variant D25E)
Ethylene receptor 1: MEVCNCIEPQWPADELLMKYQYISEFFIAIAYFSIPLELIYFVKKSAVFPYRWVLVQFGAFIVLCGATHLINLWTFTTHSRTVALVMTTAKVLTAVVSCATALMLVHIIPDLLSVKTRELFLKNKAAELDREMGLIRTQEETGRHVRMLTHEIRSTLDRHTILKTTLVELGRTLALEECALWMPTRTGLELQLSYTLRHQHPVEYTVPIQLPVINQVFGTSRAVKISPNSPVARLRPVSGKYMLGEVVAVRVPLLHLSNFQINDWPELSTKRYALMVLMLPSDSARQWHVHELELVEVVADQVAVALSHAAILEESMRARDLLMEQNVALDLARREAETAIRARNDFLAVMNHEMRTPMHAIIALSSLLQETELTPEQRLMVETILKSSNLLATLMNDVLDLSRLEDGSLQLELGTFNLHTLFREVLNLIKPIAVVKKLPITLNLAPDLPEFVVGDEKRLMQIILNIVGNAVKFSKQGSISVTALVTKSDTRAADFFVVPTGSHFYLRVKVKDSGAGINPQDIPKIFTKFAQTQSLATRSSGGSGLGLAISKRFVNLMEGNIWIESDGLGKGCTAIFDVKLGISERSNESKQSGIPKVPAIPRHSNFTGLKVLVMDENGVSRMVTKGLLVHLGCEVTTVSSNEECLRVVSHEHKVVFMDVCMPGVENYQIALRIHEKFTKQRHQRPLLVALSGNTDKSTKEKCMSFGLDGVLLKPVSLDNIRDVLSDLLEPRVLYEGM
B1: the copper binding result in assay [2] is “minimal residual binding”. For the same molecule, the “saturable [14C]ethylene binding” value in assay [3] was “substantially reduced”. Further, in assay [4], the “rescue of growth of etr1 etr2 ein4 triple mutant in air” value was “rescued growth” and the “hypocotyl growth response to ethylene” value is on record as “conferred ethylene insensitivity”. Further, the “short-term hypocotyl growth response to ethylene” value in assay [5] is reported as “exhibit ethylene insensitivity”. In addition, the “molecular response to ethylene (ethylene-dependent gene expression)” value in assay [6] is recorded as “various levels of hyposensitivity”.

B2: ETR1^D25Q: ETR1 with Asp25 replaced by Gln (protein, UniProt P49333 1-738, looked up, variant D25Q)
Ethylene receptor 1: MEVCNCIEPQWPADELLMKYQYISQFFIAIAYFSIPLELIYFVKKSAVFPYRWVLVQFGAFIVLCGATHLINLWTFTTHSRTVALVMTTAKVLTAVVSCATALMLVHIIPDLLSVKTRELFLKNKAAELDREMGLIRTQEETGRHVRMLTHEIRSTLDRHTILKTTLVELGRTLALEECALWMPTRTGLELQLSYTLRHQHPVEYTVPIQLPVINQVFGTSRAVKISPNSPVARLRPVSGKYMLGEVVAVRVPLLHLSNFQINDWPELSTKRYALMVLMLPSDSARQWHVHELELVEVVADQVAVALSHAAILEESMRARDLLMEQNVALDLARREAETAIRARNDFLAVMNHEMRTPMHAIIALSSLLQETELTPEQRLMVETILKSSNLLATLMNDVLDLSRLEDGSLQLELGTFNLHTLFREVLNLIKPIAVVKKLPITLNLAPDLPEFVVGDEKRLMQIILNIVGNAVKFSKQGSISVTALVTKSDTRAADFFVVPTGSHFYLRVKVKDSGAGINPQDIPKIFTKFAQTQSLATRSSGGSGLGLAISKRFVNLMEGNIWIESDGLGKGCTAIFDVKLGISERSNESKQSGIPKVPAIPRHSNFTGLKVLVMDENGVSRMVTKGLLVHLGCEVTTVSSNEECLRVVSHEHKVVFMDVCMPGVENYQIALRIHEKFTKQRHQRPLLVALSGNTDKSTKEKCMSFGLDGVLLKPVSLDNIRDVLSDLLEPRVLYEGM
As for B2, in assay [2], the copper binding result is on record as “minimal residual binding”. Besides, the “saturable [14C]ethylene binding” value in assay [3] was “No saturable [^14C]ethylene binding was detected”. Moreover, in assay [4], the “rescue of growth of etr1 etr2 ein4 triple mutant in air” value is reported as “rescued growth” and the “hypocotyl growth response to ethylene” value is listed as “conferred ethylene insensitivity”. Besides, in assay [5], the “short-term hypocotyl growth response to ethylene” value was “exhibit ethylene insensitivity”. Moreover, the “molecular response to ethylene (ethylene-dependent gene expression)” value in assay [6] is recorded as “various levels of hyposensitivity”.

B3: ETR1^K91A: ETR1 with Lys91 replaced by smaller nonpolar sidechain (Ala) (protein, UniProt P49333 1-738, looked up, variant K91A)
Ethylene receptor 1: MEVCNCIEPQWPADELLMKYQYISDFFIAIAYFSIPLELIYFVKKSAVFPYRWVLVQFGAFIVLCGATHLINLWTFTTHSRTVALVMTTAAVLTAVVSCATALMLVHIIPDLLSVKTRELFLKNKAAELDREMGLIRTQEETGRHVRMLTHEIRSTLDRHTILKTTLVELGRTLALEECALWMPTRTGLELQLSYTLRHQHPVEYTVPIQLPVINQVFGTSRAVKISPNSPVARLRPVSGKYMLGEVVAVRVPLLHLSNFQINDWPELSTKRYALMVLMLPSDSARQWHVHELELVEVVADQVAVALSHAAILEESMRARDLLMEQNVALDLARREAETAIRARNDFLAVMNHEMRTPMHAIIALSSLLQETELTPEQRLMVETILKSSNLLATLMNDVLDLSRLEDGSLQLELGTFNLHTLFREVLNLIKPIAVVKKLPITLNLAPDLPEFVVGDEKRLMQIILNIVGNAVKFSKQGSISVTALVTKSDTRAADFFVVPTGSHFYLRVKVKDSGAGINPQDIPKIFTKFAQTQSLATRSSGGSGLGLAISKRFVNLMEGNIWIESDGLGKGCTAIFDVKLGISERSNESKQSGIPKVPAIPRHSNFTGLKVLVMDENGVSRMVTKGLLVHLGCEVTTVSSNEECLRVVSHEHKVVFMDVCMPGVENYQIALRIHEKFTKQRHQRPLLVALSGNTDKSTKEKCMSFGLDGVLLKPVSLDNIRDVLSDLLEPRVLYEGM
Turning to B3, the “ethylene binding relative to ETR1^wt” value in assay [3] (% of wild-type binding) was determined as 1%. Besides, the “hypocotyl growth response to ethylene” value in assay [4] is reported as “a phenotype similar to that of the ETR1^K91M mutant or complete ethylene insensitivity”. The “ethylene binding (previous studies)” value in assay [7] was “low level of ethylene binding ability”. The “ethylene sensitivity of plants (previous studies)” value in assay [8] is given as “confer ethylene insensitivity”.
